± gives the standard deviation of the averaged measurements.
What was measured:
[1] = tested on: VchCAST RNA-guided transposition machinery (E. coli BL21(DE3) host, lacZ target); assay: relative integration efficiency (T-RL orientation) vs wild-type transposon end (log2 (normalized fold change)); transposon end mutated: right end (5 bp flank + 75 bp right end); higher = more efficient transposition
Experimental: (§1)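 Pooled, barcoded VchCAST (Tn6677) mini-transposon donor libraries; each variable transposon-end sequence sits in a fixed pDonor mini-transposon context (10-bp barcode and cargo not included). Left- or right-end libraries were co-transformed with pEffector (TniQ-Cascade, TnsABC, lacZ crRNA, T7, 0.1 mM IPTG) into E. coli BL21(DE3) and grown 18 h at 37 C. T-LR and T-RL junction amplicons were sequenced; output/input barcode fold change was normalised to the mean of four wild-type barcodes and log2-transformed. Two biological replicates; zero-count/undetected variants carry floor values (-10 / -15), censored here. Barcode uncoupling by PCR recombination adds noise.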

[2] = tested on: VchCAST RNA-guided transposition machinery (E. coli BL21(DE3) host, lacZ target); assay: relative integration efficiency (T-LR orientation) vs wild-type transposon end (log2 (normalized fold change)); transposon end mutated: right end (5 bp flank + 75 bp right end); higher = more efficient transposition
Experimental: as §1

Sequence: ACATTAGTTGATACAACCATAAAATGATAATTACACCCATAAATTGATCATTATCACACCCAATTTAACTATAACGCTCTGATCATAGTCAGACCAACATTGCTACGACCCGTATTCGCACCGACAC
- relative integration efficiency (log2) [1]: -7.38 ± 0.13
- relative integration efficiency (log2) [2]: -5.7 ± 0.14

Sequence: ACATTGGTCGATACAACCATAAAATGATAATTACACCCATAAATTCATAATTATCACACCCAATTTAACTATAACGCTCTGATCATAGTCAGACCAACATTGCTACGACCCGTATTCGCACCGACAC
- relative integration efficiency (log2) [1]: -7.939 ± 0.019
- relative integration efficiency (log2) [2]: -7.44 ± 1.2

Sequence: ACATTGGTCGATACAACCATAAAATGATAATTACACCCATAAATTCATCATTATCACACCCAATTTAACTATAACGCTCTGATCATAGTCAGACCAACATTGCTACGACCCGTATTCGCACCGACAC
- relative integration efficiency (log2) [1]: -7.035 ± 0.062
- relative integration efficiency (log2) [2]: -5.19 ± 1.2

Sequence: ACATTGGTCGATACAACCATAAAATGATAATTACACCCATAAATTGATAATTATCACACCCAATTTAACTATAACGCTCTGATCATAGTCAGACCAACATTGCTACGACCCGTATTCGCACCGACAC
- relative integration efficiency (log2) [1]: -7.79 ± 0.62
- relative integration efficiency (log2) [2]: -5.26 ± 0.85

Sequence: ACATTGGTCGATACAACCATAAAATGATAATTACACCCATAAATTGATCATTATCACACCCAATTTAACTATAACGCTCTGATCATAGTCAGACCAACATTGCTACGACCCGTATTCGCACCGACAC
- relative integration efficiency (log2) [1]: -7.023 ± 0.019
- relative integration efficiency (log2) [2]: -5.922 ± 0.042

Sequence: ACATTGGTGGATACAACCATAAAATGATAATTACACCCATAAATGGATAATTATCACACCCAATTTAACTATAACGCTCTGATCATAGTCAGACCAACATTGCTACGACCCGTATTCGCACCGACAC
- relative integration efficiency (log2) [1]: -7.53 ± 0.13
- relative integration efficiency (log2) [2]: -5.04 ± 0.46

Sequence: ACATTGGTGGATACAACCATAAAATGATAATTACACCCATAAATGGATCATTATCACACCCAATTTAACTATAACGCTCTGATCATAGTCAGACCAACATTGCTACGACCCGTATTCGCACCGACAC
- relative integration efficiency (log2) [1]: -7.25 ± 0.2
- relative integration efficiency (log2) [2]: -6.75 ± 1

Sequence: ACATTGGTGGATACAACCATAAAATGATAATTACACCCATAAATTCATAATTATCACACCCAATTTAACTATAACGCTCTGATCATAGTCAGACCAACATTGCTACGACCCGTATTCGCACCGACAC
- relative integration efficiency (log2) [1]: -6.19 ± 0.92
- relative integration efficiency (log2) [2]: -4.36 ± 0.31

Sequence: ACATTGGTGGATACAACCATAAAATGATAATTACACCCATAAATTCATCATTATCACACCCAATTTAACTATAACGCTCTGATCATAGTCAGACCAACATTGCTACGACCCGTATTCGCACCGACAC
- relative integration efficiency (log2) [1]: -7.11 ± 0.38
- relative integration efficiency (log2) [2]: -4.79 ± 0.16

Sequence: ACATTGGTGGATACAACCATAAAATGATAATTACACCCATAAATTGATCATTATCACACCCAATTTAACTATAACGCTCTGATCATAGTCAGACCAACATTGCTACGACCCGTATTCGCACCGACAC
- relative integration efficiency (log2) [1]: -6.97 ± 0.42
- relative integration efficiency (log2) [2]: -6.549 ± 0.042

Sequence: ACATTGGTTCATACAACCATAAAATGATAATTACACCCATAAATGGATAATTATCACACCCAATTTAACTATAACGCTCTGATCATAGTCAGACCAACATTGCTACGACCCGTATTCGCACCGACAC
- relative integration efficiency (log2) [1]: -7.74 ± 0.3
- relative integration efficiency (log2) [2]: -5.92 ± 3.5

Sequence: ACATTGGTTCATACAACCATAAAATGATAATTACACCCATAAATTCATAATTATCACACCCAATTTAACTATAACGCTCTGATCATAGTCAGACCAACATTGCTACGACCCGTATTCGCACCGACAC
- relative integration efficiency (log2) [1]: -6.669 ± 0.029
- relative integration efficiency (log2) [2]: -6.28 ± 2.6

Sequence: ACATTGGTTCATACAACCATAAAATGATAATTACACCCATAAATTCATCATTATCACACCCAATTTAACTATAACGCTCTGATCATAGTCAGACCAACATTGCTACGACCCGTATTCGCACCGACAC
- relative integration efficiency (log2) [1]: -7.13 ± 0.28
- relative integration efficiency (log2) [2]: -6.18 ± 1.9

Sequence: ACATTGGTTCATACAACCATAAAATGATAATTACACCCATAAATTGATAATTATCACACCCAATTTAACTATAACGCTCTGATCATAGTCAGACCAACATTGCTACGACCCGTATTCGCACCGACAC
- relative integration efficiency (log2) [1]: -7.42 ± 0.14
- relative integration efficiency (log2) [2]: -4.38 ± 1.6

Sequence: ACATTGGTTGATACAACCATAAAATGATAATTACACCCATAAATGGATAATTATCACACCCAATTTAACTATAACGCTCTGATCATAGTCAGACCAACATTGCTACGACCCGTATTCGCACCGACAC
- relative integration efficiency (log2) [1]: -7.99 ± 0.69
- relative integration efficiency (log2) [2]: -5.61 ± 0.44

Sequence: ACATTGGTTGATACAACCATAAAATGATAATTACACCCATAAATGGATCATTATCACACCCAATTTAACTATAACGCTCTGATCATAGTCAGACCAACATTGCTACGACCCGTATTCGCACCGACAC
- relative integration efficiency (log2) [1]: -7.55 ± 0.43
- relative integration efficiency (log2) [2]: -5.25 ± 0.34

Sequence: ACATTGGTTGATACAACCATAAAATGATAATTACACCCATAAATTCATAATTATCACACCCAATTTAACTATAACGCTCTGATCATAGTCAGACCAACATTGCTACGACCCGTATTCGCACCGACAC
- relative integration efficiency (log2) [1]: -6.39 ± 0.064
- relative integration efficiency (log2) [2]: -5.532 ± 0.042

Sequence: ACATTGGTTGATACAACCATAAAATGATAATTACACCCATAAATTCATCATTATCACACCCAATTTAACTATAACGCTCTGATCATAGTCAGACCAACATTGCTACGACCCGTATTCGCACCGACAC
- relative integration efficiency (log2) [1]: -7.43 ± 0.34
- relative integration efficiency (log2) [2]: -5.884 ± 0.042

Sequence: ACATTGGTTGATACAACCATAAAATGATAATTACACCCATAAATTGATCATTATCACACCCAATTTAACTATAACGCTCTGATCATAGTCAGACCAACATTGCTACGACCCGTATTCGCACCGACAC
- relative integration efficiency (log2) [1]: -7.17 ± 0.13
- relative integration efficiency (log2) [2]: -6.54 ± 2

Sequence: ACATTGTTTGATACAACCATAAAATGATAATTACACCCATAAATTGATAATTATCACACCCATAAATTGATATTGCCTCTGATCATAGTCAGACCAACATTGCTACGACCCGTATTCGCACCGACAC
- relative integration efficiency (log2) [1]: -6.33 ± 0.24
- relative integration efficiency (log2) [2]: -4.94 ± 0.3

Sequence: ACATTTCATGATACAACCATAAAATGATAATTACACCCATAAATTGATAATTATCACACCCATAAATTGATATTGCCTCTGATCATAGTCAGACCAACATTGCTACGACCCGTATTCGCACCGACAC
- relative integration efficiency (log2) [1]: -4.85 ± 0.79
- relative integration efficiency (log2) [2]: -5.68 ± 0.91

Sequence: ACATTTCTCGATACAACCATAAAATGATAATTACACCCATAAATGGATAATTATCACACCCAATTTAACTATAACGCTCTGATCATAGTCAGACCAACATTGCTACGACCCGTATTCGCACCGACAC
- relative integration efficiency (log2) [1]: -1.99 ± 0.23
- relative integration efficiency (log2) [2]: 0.276 ± 0.061

Sequence: ACATTTCTCGATACAACCATAAAATGATAATTACACCCATAAATGGATCATTATCACACCCAATTTAACTATAACGCTCTGATCATAGTCAGACCAACATTGCTACGACCCGTATTCGCACCGACAC
- relative integration efficiency (log2) [1]: -2.3 ± 0.27
- relative integration efficiency (log2) [2]: 0.0432 ± 0.045

Sequence: ACATTTCTCGATACAACCATAAAATGATAATTACACCCATAAATTCATAATTATCACACCCAATTTAACTATAACGCTCTGATCATAGTCAGACCAACATTGCTACGACCCGTATTCGCACCGACAC
- relative integration efficiency (log2) [1]: -1.95 ± 0.18
- relative integration efficiency (log2) [2]: 0.496 ± 0.27

Sequence: ACATTTCTCGATACAACCATAAAATGATAATTACACCCATAAATTCATCATTATCACACCCAATTTAACTATAACGCTCTGATCATAGTCAGACCAACATTGCTACGACCCGTATTCGCACCGACAC
- relative integration efficiency (log2) [1]: -3.05 ± 0.46
- relative integration efficiency (log2) [2]: 0.303 ± 0.055

Sequence: ACATTTCTCGATACAACCATAAAATGATAATTACACCCATAAATTGATAATTATCACACCCAATTTAACTATAACGCTCTGATCATAGTCAGACCAACATTGCTACGACCCGTATTCGCACCGACAC
- relative integration efficiency (log2) [1]: -1.57 ± 0.34
- relative integration efficiency (log2) [2]: 1 ± 0.028

Sequence: ACATTTCTCGATACAACCATAAAATGATAATTACACCCATAAATTGATCATTATCACACCCAATTTAACTATAACGCTCTGATCATAGTCAGACCAACATTGCTACGACCCGTATTCGCACCGACAC
- relative integration efficiency (log2) [1]: -1.71 ± 0.54
- relative integration efficiency (log2) [2]: 1.36 ± 0.048

Sequence: ACATTTCTGGATACAACCATAAAATGATAATTACACCCATAAATGGATAATTATCACACCCAATTTAACTATAACGCTCTGATCATAGTCAGACCAACATTGCTACGACCCGTATTCGCACCGACAC
- relative integration efficiency (log2) [1]: -2.35 ± 0.26
- relative integration efficiency (log2) [2]: -0.444 ± 0.28

Sequence: ACATTTCTGGATACAACCATAAAATGATAATTACACCCATAAATGGATCATTATCACACCCAATTTAACTATAACGCTCTGATCATAGTCAGACCAACATTGCTACGACCCGTATTCGCACCGACAC
- relative integration efficiency (log2) [1]: -3.09 ± 0.37
- relative integration efficiency (log2) [2]: -0.629 ± 0.35

Sequence: ACATTTCTGGATACAACCATAAAATGATAATTACACCCATAAATTCATAATTATCACACCCAATTTAACTATAACGCTCTGATCATAGTCAGACCAACATTGCTACGACCCGTATTCGCACCGACAC
- relative integration efficiency (log2) [1]: -3.39 ± 0.26
- relative integration efficiency (log2) [2]: -0.65 ± 0.075

Sequence: ACATTTCTGGATACAACCATAAAATGATAATTACACCCATAAATTCATCATTATCACACCCAATTTAACTATAACGCTCTGATCATAGTCAGACCAACATTGCTACGACCCGTATTCGCACCGACAC
- relative integration efficiency (log2) [1]: -3.59 ± 0.54
- relative integration efficiency (log2) [2]: -0.104 ± 0.069

Sequence: ACATTTCTGGATACAACCATAAAATGATAATTACACCCATAAATTGATAATTATCACACCCAATTTAACTATAACGCTCTGATCATAGTCAGACCAACATTGCTACGACCCGTATTCGCACCGACAC
- relative integration efficiency (log2) [1]: -1.94 ± 0.42
- relative integration efficiency (log2) [2]: 0.495 ± 0.035

Sequence: ACATTTCTGGATACAACCATAAAATGATAATTACACCCATAAATTGATCATTATCACACCCAATTTAACTATAACGCTCTGATCATAGTCAGACCAACATTGCTACGACCCGTATTCGCACCGACAC
- relative integration efficiency (log2) [1]: -2.77 ± 0.4
- relative integration efficiency (log2) [2]: 0.307 ± 0.3

Sequence: ACATTTCTTCATACAACCATAAAATGATAATTACACCCATAAATGGATAATTATCACACCCAATTTAACTATAACGCTCTGATCATAGTCAGACCAACATTGCTACGACCCGTATTCGCACCGACAC
- relative integration efficiency (log2) [1]: -4.17 ± 0.17
- relative integration efficiency (log2) [2]: -2.86 ± 0.049
